Test results as given in US8710181B2, “Use of tris(hydroxymethyl) aminomethane for the stabilization of peptides, polypeptides and proteins” (Novo Nordisk A/S, priority 2004, dated 2014).

Assays:
Format in all cases: physicochemical
[1] = Room temperature stability of Arg34-GLP-1[7-37] loading solution and column eluate with TRIS, monitored by RP-HPLC (Example 1); conditions: for Arg34-GLP-1[7-37] eluate concentration: 10 mM Tris pH 9.2, RP-HPLC; for Arg34-GLP-1[7-37] concentration in loading solution: 10 mM TRIS, pH adjusted to 3.2, RP-HPLC
Method: An aqueous solution of Arg34-GLP-1[7-37] containing approximately 2% by weight ethanol and 10 mM of tris(hydroxymethyl)aminomethane, at pH 9.2 was made at room temperature, pH was adjusted to 3.2. The room temperature stability of the solution was monitored by RP-HPLC.
The solution was loaded on an ion-exchange column, Source 30S, Amersham Bioscience, at pH 3.23 and after washing the column with an acid buffer containing ethanol and citric acid, the product was eluted with an aqueous solution containing 10 mM Tris at pH 9.2. The room temperature stability of the eluate from the column was monitored by RP-HPLC (Table 1)/(FIG. 1).

[2] = Comparative room temperature stability with glycine instead of TRIS, monitored by RP-HPLC (Comparative Example 1)
Method: A comparative test with 20-200 mM glycine instead of tris(hydroxymethyl)aminomethane was done.
An aqueous solution of Arg34-GLP-1[7-37] containing approximately 2% by weight ethanol and 20 mM of glycine, at pH 9.0 was made at room temperature, pH was adjusted to approximately 3.3.
The solution was loaded to an ion-exchange column, Source 30S, Amersham Bioscience, at pH 3.3 and after wash of the column with an acid buffer containing ethanol and citric acid, the product was eluted with an aqueous solution containing 200 mM Glycine at pH 9.5. The stability of the eluate from the column was monitored by RP-HPLC at room temperature for 5 days.

[3] = Repeated preparative runs on Source 30S column 20 cm I.D. with TRIS: pressure and fibrillation (Example 2)
Method: (§1) Gelation/fibrillation/aggregation can be estimated by the Thioflavin T test […] resulting in a colored response the degree of gelation. Another result would be increased viscosity of the gelated solution resulting in increasing back pressure on chromatographic columns during multiple runs—this is usually the first indication of gelation taking place, […].
(§2) An aqueous solution of Arg34-GLP-1[7-37] containing approximately 2% by weight ethanol and 10 mM of tris(hydroxymethyl)aminomethane, at pH 9.2 was made at room temperature by dissolution of an Arg34-GLP-1[7-37] isoelectric precipitate directly in the solution. Subsequently, pH was adjusted to 3.2.
A preparative aliquot of the solution was loaded on a large scale ion-exchange column, 20 cm I.D. (internal diameter), Source 30S, Amersham Bioscience, at pH 3.3 and after washing the column with an acid buffer containing ethanol and citric acid to remove impurities, the product was eluted with an aqueous solution containing 10 mM Tris at pH 9.2. The column was regenerated with 1 M NaOH, equilibrated with the acidic wash buffer, and the column was loaded again with loading solution. Eluate from the Source 30S column was automatically pH adjusted with 100 mM tris buffer pH 7.4 to pH 8.0.

[4] = Repeated runs on Source 30S column 45 cm i.d. with TRIS: pressure, analysis of column material for aggregated/fibrillated proteins (Example 4); conditions: after 283 runs on Source 30S column, 10 mM Tris
Method: as §1
An aqueous solution of Arg34-GLP-1[7-37] containing approximately 2% by weight ethanol and 10 mM of tris(hydroxymethyl)aminomethane, at pH 9.2 was made at room temperature, pH was adjusted to 3.2.
Aliquot of the solution was loaded to an ion-exchange column, 45 cm i.d., Source 30S, Amersham Bioscience, at pH 3.3 and after wash of the column with an acid buffer containing ethanol and citric acid, the product was eluted with an aqueous solution containing 10 mM Tris at pH 9.2. The column was regenerated and loaded again with loading solution.

[5] = Repeated runs on Source 30Q and RP-HPLC columns with TRIS: pressure, analysis of column material for aggregated/fibrillated proteins (Example 5); conditions: 20 mM tris
From the text: as §1
An aqueous solution of N^ε-hexadecanoyl-γ-glutamyl-Lys26-Arg34-GLP-1[7-37] containing approximately 2% by weight ethanol and 10 mM of tris(hydroxymethyl)aminomethane, at pH 9.2 was made at room temperature. Aliquot of the solution was loaded to an ion-exchange column, 45 cm i.d., Source 30Q, Amersham Bioscience, at pH 9.2 and after wash of the column with an neutral buffer containing 20 mM tris and 63% by weight ethanol (pH 7.5), the product was eluted by an sodium chloride gradient at pH 7.5 in a 20 mM tris buffer containing 63% by weight ethanol. The column was regenerated and loaded again with loading solution. One eluate from the Source 30Q column was automatically diluted with water before it was applied to an other column, RP-HPLC column 100 Å C-18, particle diameter i.d. 15 μm, column i.d. 45 cm, and eluted with a buffer containing 20 mM tris, 125 mM sodium chloride and approx. 45% by weight ethanol at pH 6.9.

[6] = Repeated preparative runs on Source 30Q and RP-HPLC C-18 columns with TRIS: pressure and fibrillation (Example 3)
From the text: as §1
as §2, with “N^ε-hexadecanoyl-γ-glutamyl-Lys26-Arg34-GLP-1[7-37]” for “Arg34-GLP-1[7-37]”, “solution.” for “solution. Subsequently, pH was adjusted to 3.2.”
A preparative aliquot of the solution was loaded on a large scale ion-exchange column, 45 cm I.D. (internal diameter), Source 30Q, Amersham Bioscience, at pH 9.2 and after washing the column with an buffer containing 20 mM tris and 63% by weight ethanol (pH 7.5) to remove impurities, the product was eluted by a sodium chloride gradient at pH 7.5 in a 20 mM tris buffer containing 63% by weight ethanol. The column was regenerated with 1 M NaOH, equilibrated with the pH 7.5 wash buffer, and the column was loaded again with loading solution. Eluate from the Source 30Q column was automatically diluted with water before it was loaded on another large scale column, RP-HPLC column 100 Å C-18, particle diameter 15 μm, column I.D. 45 cm, and eluted with a buffer solution containing 20 mM tris, 125 mM sodium chloride and approx. 45% by weight ethanol at pH 6.9. The column was regenerated with a 70% ethanol solution and subsequently equilibrated with a 25% ethanol solution containing 20 mM Tris.

[7] = after 60 runs on Source 30S column, 20 cm I.D., 10 mM Tris
[8] = after 77 runs on Source 30Q column, 63% ethanol
[9] = after 60 runs on both Source 30Q column and RP-HPLC column, tris buffers with ethanol

Arg34-GLP-1[7-37]
Arg34-GLP-1[7-37] eluate concentration ([1]; Day 0, Source 30S eluate): 1.4 mg/mL | Arg34-GLP-1[7-37] concentration in loading solution ([1]; Day 0, approx. 2% ethanol): 1.7 mg/mL | Arg34-GLP-1[7-37] eluate concentration ([1]; Day 1, Source 30S eluate): 1.4 mg/mL | Arg34-GLP-1[7-37] concentration in loading solution ([1]; Day 1, approx. 2% ethanol): 1.7 mg/mL | Arg34-GLP-1[7-37] eluate concentration ([1]; Day 2, Source 30S eluate): 1.4 mg/mL | Arg34-GLP-1[7-37] concentration in loading solution ([1]; Day 2, approx. 2% ethanol): 1.7 mg/mL | Arg34-GLP-1[7-37] eluate concentration ([1]; Day 3, Source 30S eluate): 1.3 mg/mL | Arg34-GLP-1[7-37] concentration in loading solution ([1]; Day 5, approx. 2% ethanol): 1.7 mg/mL | Gelation/fibrillation/aggregation ([1]; loading solution and eluate with 10 mM TRIS): not observed | stability at room temperature (fibrillation) ([2]; eluate, 200 mM Glycine pH 9.5): less than one day | stability at room temperature (fibrillation) ([2]; loading solution, 20 mM glycine, approx. 2% ethanol, pH approx. 3.3): less than one day | fibrillation in loading solution and eluate ([3]; 60 runs, Source 30S, 10 mM TRIS loading solution, eluate adjusted to pH 8.0 with tris buffer): no fibrillation was observed | change in pressure on column [3, 7]: no change in pressure was observed | fibrillation on the column [3, 7]: no fibrillation had occurred on the column | change in pressure on column [4]: without change in pressure | proteins or aggregated/fibrillated proteins on the column material [4]: no observation of proteins or aggregated/fibrillated proteins

N^ε-hexadecanoyl-γ-glutamyl-Lys26-Arg34-GLP-1[7-37]
aggregated/fibrillated proteins on the column material ([5]; RP-HPLC column 100 Å C-18 after 49 runs, 125 mM NaCl, approx. 45% ethanol, pH 6.9): no observations of aggregated/fibrillated proteins | aggregated/fibrillated proteins on the column material [5, 8]: no observation of aggregated/fibrillated proteins | change in pressure on column [5, 8]: without change in pressure | fibrillation in loading solutions and eluates ([6]; 60 runs, Source 30Q and RP-HPLC, 10-20 mM tris): no fibrillation was observed | change in pressure on column [6, 9]: no change in pressure was observed | fibrillation on the column [6, 9]: no fibrillation had occurred on the column
